Data set [1] concerns the molecule itself. In words: not stated; unpublished data; oligomeric state of YpdE, method not given.
Data set [2] concerns the molecule itself. Briefly: SEC; gel filtration on Superdex 200 (16/70 column), final step of the purification, 50 mM Tris, 300 mM NaCl pH 7.3; for CelM all buffers with 1 mM glutathione; oligomer size from the apparent mass at elution. In general terms: In gel filtration, larger molecules generally elute earlier.

B1: YpdE, M42 aminopeptidase of E. coli (enzyme, UniProt P77585 1-345, looked up)
chain: MDLSLLKALSEADAIASSEQEVRQILLEEADRLQKEVRFDGLGSVLIRLNESTGPKVMICAHMDEVGFMVRSISREGAIDVLPVGNVRMAARQLQPVRITTREECKIPGLLDGDRQGNDVSAMRVDIGARSYDEVMQAGIRPGDRVTFDTTFQVLPHQRVMGKAFDDRLGCYLLVTLLRELHDAELPAEVWLVASSSEEVGLRGGQTATRAVSPDVAIVLDTACWAKNFDYGAANHRQIGNGPMLVLSDKSLIAPPKLTAWVETVAAEIGVPLQADMFSNGGTDGGAVHLTGTGVPTVVMGPATRHGHCAASIADCRDILQMQQLLSALIQRLTRETVVQLTDFR
notes: YpdE, one of three M42 aminopeptidases of E. coli; Only named in the discussion as unpublished data; the construct is not described; copies: 12
The term stoichiometry N denotes the number of molecules, sites or subunits per partner or assembly. With B1, the “stoichiometry N” value in data set [1] is 12.

B2: TmPep1050 protein of Thermotoga maritima (TM1050 ORF) (enzyme, UniProt Q9X0E0 1-331, looked up)
chain: MKELIRKLTEAFGPSGREEEVRSIILEELEGHIDGHRIDGLGNLIVWKGSGEKKVILDAHIDEIGVVVTNVDDKGFLTIEPVGGVSPYMLLGKRIRFENGTIGVVGMEGETTEERQENVRKLSFDKLFIDIGANSREEAQKMCPIGSFGVYDSGFVEVSGKYVSKAMDDRIGCAVIVEVFKRIKPAVTLYGVFSVQEEVGLVGASVAGYGVPADEAIAIDVTDSADTPKAIKRHAMRLSGGPALKVKDRASISSKRILENLIEIAEKFDIKYQMEVLTFGGTNAMGYQRTREGIPSATVSIPTRYVHSPSEMIAPDDVEATVDLLIRYLGA
notes: TmPep1050, M42 aminopeptidase of Thermotoga maritima, product of the TM1050 ORF carried by the JCSG plasmid TmCD00089984; predicted molecular weight of the monomer 37.5 kDa; the tag of the JCSG construct is not described; also called 3ISX; source: E. coli MC1061, plasmid TmCD00089984, purified (heat step 60°C, Ni-NTA IMAC, Superdex 200)
In the case of B2, in data set [2], the “stoichiometry N” value was determined as 2.

Values taken from PMC3511314, “Functional Characterization of Two M42 Aminopeptidases Erroneously Annotated as Cellulases” (PLoS ONE, 2012).
